Results from paper PMC7369618 (Redox Biology, 2020).

Target: EGFP-PKM2 (UniProt P14618 1-531)
Experiment: MST

EGFP-PKM2, sequence (P14618 whole entry): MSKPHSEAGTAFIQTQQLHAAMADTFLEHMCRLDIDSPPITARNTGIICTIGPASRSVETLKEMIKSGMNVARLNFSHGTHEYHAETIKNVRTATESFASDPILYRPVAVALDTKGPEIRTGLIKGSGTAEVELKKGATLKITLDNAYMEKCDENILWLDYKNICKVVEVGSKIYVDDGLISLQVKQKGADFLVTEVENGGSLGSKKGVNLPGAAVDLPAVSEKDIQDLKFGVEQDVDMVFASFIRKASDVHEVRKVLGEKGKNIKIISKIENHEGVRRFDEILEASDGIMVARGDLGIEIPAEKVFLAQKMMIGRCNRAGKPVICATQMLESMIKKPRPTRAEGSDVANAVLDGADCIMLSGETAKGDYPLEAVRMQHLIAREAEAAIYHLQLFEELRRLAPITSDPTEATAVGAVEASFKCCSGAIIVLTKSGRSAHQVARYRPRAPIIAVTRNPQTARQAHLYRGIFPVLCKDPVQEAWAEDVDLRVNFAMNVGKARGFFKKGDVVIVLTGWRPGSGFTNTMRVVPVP

B1: Annexin A5 (sc-4252, Santa Cruz Biotechnology) (natural protein)
chain: MAQVLRGTVTDFPGFDERADAETLRKAMKGLGTDEESILTLLTSRSNAQRQEISAAFKTLFGRDLLDDLKSELTGKFEKLIVALMKPSRLYDAYELKHALKGAGTNEKVLTEIIASRTPEELRAIKQVYEEEYGSSLEDDVVGDTSGYYQRMLVVLLQANRDPDAGIDEAQVEQDAQALFQAGELKWGTDEEKFITIFGTRSVSHLRKVFDKYMTISGFQIEETIDRETSGNLEQLLLAVVKSIRSIPAYLAETLYYAMKGAGTDDHTLIRVMVSRSEIDLFNIRKEFRKNFATSLYSMIKGDTSGDYKKALLLLCGEDD
Kd: 0.001 pM
